# Results from patent publication US20060275250A1, “Reactive polymers and copolymers, method of their preparation and their use” (priority 2003, published 2006).
# B1: star-like poly(HMPA)—RNase A conjugate (conjugate, UniProt P61823 27-150, looked up)
# Ribonuclease pancreatic: KETAAAKFERQHMDSSTSAASSSNYCNQMMKSRNLTKDRCKPVNTFVHESLADVQAVCSQKNVACKNGQTNCYQSYSTMSITDCRETGSSKYPNCAYKTTQANKHIIVACEGNPYVPVHFDASV
# modifications: star-like poly(HPMA) polymer conjugate
# What was measured:
# [1] = clinical testing; cumulative dose reached 1680 mg/m^2; cited from earlier work
# [2] = system: mouse T-cell lymphom EL-4; experiment: In vitro cytotoxicity, [3H]thymidine incorporation, EL-4 tumour line; type: cell-based; conditions: mouse T-cell lymphoma EL-4 line, 50% decrease in proliferation
# Method: (§1) In vitro cytotoxicity tests were performed by a standard method on ConA-stimulated and nonstimulated mouse T-splenocytes and on a tumour line of mouse T-cell lymphom EL-4. Cytotoxicity was followed by a change of incorporation of [^3H]thymidine into cells incubated in a medium containing the tested sample in various concentrations. The cytotoxicity was expressed by the IC50 factor (the substance concentration at which a 50% decrease in proliferation of tested cells is observed).
# [3] = system: ConA-stimulated mouse T-splenocytes; experiment: In vitro cytotoxicity, [3H]thymidine incorporation, ConA-stimulated mouse T-splenocytes; type: cell-based; conditions: Splenocyte, 50% decrease in proliferation
# Method: as §1
# human melanoma = experiment: Treatment of human melanoma in nu-nu mice; type: in vivo; conditions: compared with the conjugate from ONp or Su reactive polymer, FIG. 3
# Description: The properties of the conjugate were compared with those of the conjugate prepared from the classic ONp reactive polymer. […] The synthesis using the reactive polymer according to the invention proceeded faster, a polymer with a smaller content of reactive groups (2 mol %) could be used for obtaining the same product, and in the resulting conjugate no unmodified protein or unreacted polymer was present (the conversion of the reaction of reactive groups was higher).
# A star-like poly(HMPA)—RNase A conjugate was prepared from a semitelechelic polymer prepared according to Example 3 by the same procedure as in the synthesis starting from poly(HPMA) with succinimidyl end group. The star conjugate was purified from low-molecular-weight materials by preparative gel chromatography (Sephacryl S300, column 26×600 mm, flow-rate 12.5 ml/h, distilled water). After concentration using an ultrafiltration membrane (PM 30), the product was lyophilized. Comparing the conjugate syntheses using polymers with OSu and TT reactive groups, the latter led to higher reaction yields and much smaller amounts of unreacted (hydrolyzed) polymer in the reaction mixture.
molecule,measurement,setting,value
N-(2-hydroxypropyl)methacrylamide copolymer doxorubicin [PK1],changes in cardial functions,[1],no serious changes in cardial functions were observed
"COc1cccc2c1C(=O)c1c(O)c3c(c(O)c1C2=O)C[C@@](O)(C(=O)CO)C[C@@H]3O[C@H]1C[C@H](N)[C@H](O)[C@H](C)O1 [Dox, doxorubicin]",IC50,[2],0.03 µg/mL
same,IC50,[3],0.07 µg/mL
B1,biological properties / in vivo activity in the treatment of human melanoma,human melanoma,active under in vivo conditions equally well as the conjugate prepared from reactive Su ester
